Test results from patent US20030091584A1.
Substitutions are numbered along the chain they refer to. Values joined by “and” are separate entries in the source; they are usually repeats but may differ in a detail not shown here. Identical values can stand only once.

B1: AFFF (monoclonal antibody) (antibody, V domains shown)
VH: QVTLRESGPALVKPTQTLTLTCTFSGFSLSTAGMSVGWIRQPPGKALEWLADIWWDDKKDYNPSLKSRLTISKDTSKNQVVLKVTNMDPADTATYYCARSMITNFYFDVWGAGTTVTVSS
VL: DIQMTQSPSTLSASVGDRVTITCSASSSVGYMHWYQQKPGKAPKLLIYDTFKLASGVPSRFSGSGSGTEFTLTISSLQPDDFATYYCFQFSGYPFTFGGGTKLEIK
B2: P11d4 (monoclonal antibody) (antibody, V domains shown)
VH: B1 VH with A32P, D57G, D60H, S67D, S100D, T103F, F105W, A112Q
VL: B1 VL with A25P, S28R, F51M, K52R, F90G, L103V
B3: A17d4 (monoclonal antibody) (antibody, V domains shown)
VH: B1 VH with D57G, D60S, S67D, S100D, T103F, A112Q
VL: B1 VL with S24L, A25P, S28R, F51M, K52Y, L53Q
B4: AFFF (Fab fragment) (Fab, V domains shown)
VH: B1 VH
VL: B1 VL
B5: L1-7E5 (Fab fragment) (Fab, V domains shown)
VH: B1 VH with S100D
VL: B1 VL with K52R, F90G
B6: P12f2 (monoclonal antibody) (antibody, V domains shown)
VH: B1 VH with A32P, D60H, S67D, S100D, T103F
VL: B1 VL with A25L, S28R, K52Y, A54S, F90G, L103V
B7: P12f4 (monoclonal antibody) (antibody, V domains shown)
VH: B1 VH with A32P, D57G, D60H, S67D, S100D, T103F, A112Q
VL: B1 VL with A25L, S28R, F51R, K52G, A54P, F90G, L103V
B8: A13c4 (monoclonal antibody) (antibody, V domains shown)
VH: B1 VH with D57G, D60S, S67D, S100D, T103F, A112Q
VL: B1 VL with A25L, S28R, F51M, K52Y, L53Q, A54S, F90G, L103V
B9: A12a6 (monoclonal antibody) (antibody, V domains shown)
VH: B1 VH with D57G, S67D, S100D, T103F, A112Q
VL: B1 VL with S28R, A54S, F90G, L103V
B10: A1e9 (monoclonal antibody) (antibody, V domains shown)
VH: B1 VH with A32P, D57G, D60H, S67D, S100D, T103F, F105W, A112Q
VL: B1 VL with A25L, S28R, A54S, F90G, L103V
B11: A8c7 (monoclonal antibody) (antibody, V domains shown)
VH: B1 VH with D60S, S67D, S100D, T103F, F105W, A112Q
VL: B1 VL with S28R, F51R, K52Y, L53Q, A54S, F90G

Legend:
[1] = target: RSV F protein (immobilized on the BIAcore sensor chip) (respiratory syncytial virus); test: BIAcore, immobilized F protein
RSV F protein (immobilized on the BIAcore sensor chip) (respiratory syncytial virus), sequence (P03420 26-524): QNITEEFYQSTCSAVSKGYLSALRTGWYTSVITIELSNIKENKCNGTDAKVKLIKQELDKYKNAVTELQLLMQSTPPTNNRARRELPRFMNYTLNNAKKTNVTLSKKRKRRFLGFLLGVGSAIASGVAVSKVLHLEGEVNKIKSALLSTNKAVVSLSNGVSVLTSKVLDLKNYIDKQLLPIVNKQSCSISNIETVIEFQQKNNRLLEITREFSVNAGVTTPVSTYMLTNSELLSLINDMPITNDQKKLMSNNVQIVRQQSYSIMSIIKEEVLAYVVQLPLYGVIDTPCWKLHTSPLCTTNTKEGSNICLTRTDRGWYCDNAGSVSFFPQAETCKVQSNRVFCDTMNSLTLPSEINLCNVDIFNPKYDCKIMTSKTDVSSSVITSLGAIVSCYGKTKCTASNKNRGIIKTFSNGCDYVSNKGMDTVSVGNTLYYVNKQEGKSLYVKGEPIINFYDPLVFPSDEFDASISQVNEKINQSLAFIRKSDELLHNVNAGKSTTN

Bac-F = test: BIAcore, mAb vs Bac-F (1:1)

| Binder | koff [1] | kon [1] | Kd (Bac-F) [nM] | koff (Bac-F) [s⁻¹] | kon (Bac-F) [M⁻¹ s⁻¹] | number in parentheses after KD (fold against SYNAGIS = 1) (Bac-F) [fold] |
| --- | --- | --- | --- | --- | --- | --- |
| B1 | 0.000274 s⁻¹ and 0.000266 s⁻¹ and 0.000206 s⁻¹ | 108000 M⁻¹ s⁻¹ and 96000 M⁻¹ s⁻¹ and 124000 M⁻¹ s⁻¹ | – | – | – | – |
| B2 | – | – | 0.62 | 0.000289 | 466000 | 6 |
| B3 | – | – | 0.09 | 4.07e-05 | 456000 | 43 |
| B4 | 0.000245 s⁻¹ and 0.000446 s⁻¹ and 0.000268 s⁻¹ | 212000 M⁻¹ s⁻¹ and 156000 M⁻¹ s⁻¹ and 186000 M⁻¹ s⁻¹ | – | – | – | – |
| B5 | 0.000192 s⁻¹ and 0.000331 s⁻¹ and 0.000229 s⁻¹ | – | – | – | – | – |
| B6 | – | – | 0.31 | 0.000128 | 407000 | 13 |
| B7 | – | – | 0.11 | 5.55e-05 | 495000 | 35 |
| B8 | – | – | 0.13 | 3.96e-05 | 300000 | 30 |
| B9 | – | – | 0.04 | 1.65e-05 | 460000 | 98 |
| B10 | – | – | 0.33 | 0.000143 | 433000 | 12 |
| B11 | – | – | 0.21 | 8.75e-05 | 417000 | 19 |
